# Reference: patent US20190307899A1, “JUNCTOPHILIN-2 FRAGMENTS AND USES THEREFOR” (University of Lowa Research Foundation, published 2019)
# T1: JP2(1-565) truncation with N-terminal FLAG tag (plasmid construct of FIG. 4)
# T1 chain: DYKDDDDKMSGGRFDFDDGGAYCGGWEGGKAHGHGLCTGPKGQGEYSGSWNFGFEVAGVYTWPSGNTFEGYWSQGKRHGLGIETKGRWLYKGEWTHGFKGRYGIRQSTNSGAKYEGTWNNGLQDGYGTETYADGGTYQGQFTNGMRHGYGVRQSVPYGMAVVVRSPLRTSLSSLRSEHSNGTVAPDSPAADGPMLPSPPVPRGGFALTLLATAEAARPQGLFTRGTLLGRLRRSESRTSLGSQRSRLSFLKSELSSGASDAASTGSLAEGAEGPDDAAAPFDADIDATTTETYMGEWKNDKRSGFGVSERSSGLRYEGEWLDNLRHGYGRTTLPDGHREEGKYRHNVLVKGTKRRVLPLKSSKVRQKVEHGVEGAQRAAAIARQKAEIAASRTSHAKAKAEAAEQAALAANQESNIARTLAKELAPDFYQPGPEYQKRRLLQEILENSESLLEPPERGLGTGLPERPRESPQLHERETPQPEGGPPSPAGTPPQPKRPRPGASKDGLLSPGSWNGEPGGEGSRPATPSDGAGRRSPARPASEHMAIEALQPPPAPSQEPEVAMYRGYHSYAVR
# T2: full-length JP2 Δ(153-158) with N-terminal FLAG and C-terminal HA tags
# T2 chain: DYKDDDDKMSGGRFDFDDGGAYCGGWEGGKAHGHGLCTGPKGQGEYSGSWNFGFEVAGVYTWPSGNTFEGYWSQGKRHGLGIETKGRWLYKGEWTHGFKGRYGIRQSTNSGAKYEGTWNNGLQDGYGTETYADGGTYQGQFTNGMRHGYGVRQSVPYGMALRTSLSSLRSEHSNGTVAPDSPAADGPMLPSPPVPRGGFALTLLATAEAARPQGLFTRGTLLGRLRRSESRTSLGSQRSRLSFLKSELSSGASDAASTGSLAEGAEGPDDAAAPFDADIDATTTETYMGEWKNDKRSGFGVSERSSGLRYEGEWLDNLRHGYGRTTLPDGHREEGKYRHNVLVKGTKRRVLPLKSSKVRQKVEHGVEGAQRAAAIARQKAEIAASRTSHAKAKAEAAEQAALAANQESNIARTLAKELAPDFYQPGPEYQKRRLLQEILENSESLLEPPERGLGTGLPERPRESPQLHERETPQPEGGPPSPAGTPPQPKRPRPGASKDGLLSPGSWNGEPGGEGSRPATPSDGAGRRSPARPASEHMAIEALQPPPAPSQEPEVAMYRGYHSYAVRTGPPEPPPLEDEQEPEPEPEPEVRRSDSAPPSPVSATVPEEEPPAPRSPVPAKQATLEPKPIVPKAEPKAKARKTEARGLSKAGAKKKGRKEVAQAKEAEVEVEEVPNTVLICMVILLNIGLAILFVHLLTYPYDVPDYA
# T3: full-length JP2 Δ(198-205) with N-terminal FLAG and C-terminal HA tags
# T3 chain: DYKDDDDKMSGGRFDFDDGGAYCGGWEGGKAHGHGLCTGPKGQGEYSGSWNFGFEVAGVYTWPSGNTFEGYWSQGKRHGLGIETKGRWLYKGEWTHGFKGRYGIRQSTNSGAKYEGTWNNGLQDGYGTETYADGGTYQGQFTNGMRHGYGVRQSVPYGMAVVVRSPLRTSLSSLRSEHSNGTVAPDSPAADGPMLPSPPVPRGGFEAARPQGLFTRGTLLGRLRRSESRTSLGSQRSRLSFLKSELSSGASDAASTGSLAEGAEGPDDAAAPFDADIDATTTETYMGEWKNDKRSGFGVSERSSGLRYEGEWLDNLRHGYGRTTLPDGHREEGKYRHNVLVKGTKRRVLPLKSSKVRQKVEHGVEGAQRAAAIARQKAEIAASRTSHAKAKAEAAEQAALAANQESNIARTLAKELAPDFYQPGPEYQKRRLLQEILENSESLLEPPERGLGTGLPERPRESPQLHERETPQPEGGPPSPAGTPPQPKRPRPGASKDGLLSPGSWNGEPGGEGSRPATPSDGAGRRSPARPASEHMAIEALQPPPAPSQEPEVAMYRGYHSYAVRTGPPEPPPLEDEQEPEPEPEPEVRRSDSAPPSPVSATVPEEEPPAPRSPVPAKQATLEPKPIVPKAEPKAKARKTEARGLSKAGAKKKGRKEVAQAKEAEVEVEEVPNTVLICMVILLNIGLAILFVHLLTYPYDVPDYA
# T4: full-length JP2 Δ(563-568) with N-terminal FLAG and C-terminal HA tags
# T4 chain: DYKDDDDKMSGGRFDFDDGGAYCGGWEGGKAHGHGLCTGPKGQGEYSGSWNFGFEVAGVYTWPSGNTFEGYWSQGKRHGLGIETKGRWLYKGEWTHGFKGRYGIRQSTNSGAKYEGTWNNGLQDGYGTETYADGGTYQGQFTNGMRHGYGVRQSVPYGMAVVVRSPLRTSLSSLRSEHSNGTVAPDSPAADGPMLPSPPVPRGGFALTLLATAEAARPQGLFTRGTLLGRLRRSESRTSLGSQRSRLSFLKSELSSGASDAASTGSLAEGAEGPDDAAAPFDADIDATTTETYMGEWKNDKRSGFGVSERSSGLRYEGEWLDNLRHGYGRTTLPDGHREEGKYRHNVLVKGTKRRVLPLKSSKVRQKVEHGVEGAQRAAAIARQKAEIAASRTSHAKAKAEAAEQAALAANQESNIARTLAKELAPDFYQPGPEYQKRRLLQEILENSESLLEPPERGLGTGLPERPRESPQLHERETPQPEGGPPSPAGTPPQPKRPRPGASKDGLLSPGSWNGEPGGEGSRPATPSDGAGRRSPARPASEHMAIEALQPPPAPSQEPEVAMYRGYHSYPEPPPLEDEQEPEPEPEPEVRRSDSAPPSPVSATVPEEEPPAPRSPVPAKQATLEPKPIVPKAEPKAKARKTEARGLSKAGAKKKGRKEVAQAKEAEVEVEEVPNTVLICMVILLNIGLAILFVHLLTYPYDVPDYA
# T5: junctophilin-2 (JP2), human, in human heart lysates, Q9BR39
# T5 chain: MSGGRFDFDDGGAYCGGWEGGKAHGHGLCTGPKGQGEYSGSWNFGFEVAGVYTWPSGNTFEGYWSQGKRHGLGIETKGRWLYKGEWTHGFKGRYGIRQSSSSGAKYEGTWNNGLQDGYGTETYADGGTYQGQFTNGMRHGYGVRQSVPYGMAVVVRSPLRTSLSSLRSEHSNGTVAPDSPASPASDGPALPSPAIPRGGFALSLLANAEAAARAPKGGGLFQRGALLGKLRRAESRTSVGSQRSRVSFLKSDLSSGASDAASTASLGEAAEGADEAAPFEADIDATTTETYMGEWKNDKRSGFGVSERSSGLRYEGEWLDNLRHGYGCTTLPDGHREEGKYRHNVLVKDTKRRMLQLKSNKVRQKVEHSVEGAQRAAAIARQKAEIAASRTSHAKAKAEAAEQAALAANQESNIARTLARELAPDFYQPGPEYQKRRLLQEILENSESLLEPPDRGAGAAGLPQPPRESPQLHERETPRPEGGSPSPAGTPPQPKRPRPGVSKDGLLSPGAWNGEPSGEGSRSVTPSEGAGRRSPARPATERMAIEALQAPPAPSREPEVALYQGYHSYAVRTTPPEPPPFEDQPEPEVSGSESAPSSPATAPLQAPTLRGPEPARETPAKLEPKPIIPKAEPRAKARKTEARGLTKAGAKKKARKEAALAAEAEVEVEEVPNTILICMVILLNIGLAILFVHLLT
# T6: junctophilin-2 (JP2), murine, full length, untagged
# T6 chain: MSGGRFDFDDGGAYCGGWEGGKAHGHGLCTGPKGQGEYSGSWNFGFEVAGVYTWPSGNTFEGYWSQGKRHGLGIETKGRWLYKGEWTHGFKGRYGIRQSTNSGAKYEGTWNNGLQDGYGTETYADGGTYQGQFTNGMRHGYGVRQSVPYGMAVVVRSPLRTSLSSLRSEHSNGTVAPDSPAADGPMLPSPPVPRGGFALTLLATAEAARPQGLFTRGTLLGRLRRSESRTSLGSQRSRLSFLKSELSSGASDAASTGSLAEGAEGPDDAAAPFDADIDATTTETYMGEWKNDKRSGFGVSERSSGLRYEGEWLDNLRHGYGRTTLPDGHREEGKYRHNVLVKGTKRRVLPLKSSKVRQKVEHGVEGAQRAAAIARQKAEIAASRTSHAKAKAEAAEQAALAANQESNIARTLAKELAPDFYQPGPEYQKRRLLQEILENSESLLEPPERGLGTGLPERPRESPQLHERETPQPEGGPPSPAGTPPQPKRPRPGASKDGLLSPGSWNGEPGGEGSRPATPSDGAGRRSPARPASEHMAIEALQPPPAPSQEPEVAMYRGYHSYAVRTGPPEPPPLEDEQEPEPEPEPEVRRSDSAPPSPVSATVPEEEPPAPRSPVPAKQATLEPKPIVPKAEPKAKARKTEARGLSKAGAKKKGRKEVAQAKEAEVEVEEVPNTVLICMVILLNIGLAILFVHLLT
# B1: TATA box variant TATAAT (dsDNA)
# DNA 1: GGGATCTGAGTCGCAGTATAATAGAAGCTTTTCGGGCGTT
# DNA 2: AACGCCCGAAAAGCTTCTATTATACTGCGACTCAGATCCC
# modifications: [22]
# B2: JP2(566-end)-HA (other)
# chain: TGPPEPPPLEDEQEPEPEPEPEVRRSDSAPPSPVSATVPEEEPPAPRSPVPAKQATLEPKPIVPKAEPKAKARKTEARGLSKAGAKKKGRKEVAQAKEAEVEVEEVPNTVLICMVILLNIGLAILFVHLLTYPYDVPDYA
# notes: also called JP(566-end); Ad-JP2(566-end)
# B3: purified human calpain I (protein)
# chain: SEEIITPVYCTGVSAQVQKQRARELGLGRHENAIKYLGQDYEQLRVRCLQSGTLFRDEAFPPVPQSLGYKDLGPNSSKTYGIKWKRPTELLSNPQFIVDGATRTDICQGALGDCWLLAAIASLTLNDTLLHRVVPHGQSFQNGYAGIFHFQLWQFGEWVDVVVDDLLPIKDGKLVFVHSAEGNEFWSALLEKAYAKVNGSYEALSGGSTSEGFEDFTGGVTEWYELRKAPSDLYQIILKALERGSLLGCSIDISSVLDMEAITFKKLVKGHAYSVTGAKQVNYRGQVVSLIRMRNPWGEVEWTGAWSDSSSEWNNVDPYERDQLRVKMEDGEFWMSFRDFMREFTRLEICNLTPDALKSRTIRKWNTTLYEGTWRRGSTAGGCRNYPATFWVNPQFKIRLDETDDPDDYGDRESGCSFVLALMQKHRRRERRFGRDMETIGFAVYEVPPELVGQPAVHLKRDFFLANASRARSEQFINLREVSTRFRLPPGEYVVVPSTFEPNKEGDFVLRFFSEKSAGTVELDDQIQANLPDEQVLSEEEIDENFKALFRQLAGEDMEISVKELRTILNRIISKHKDLRTKGFSLESCRSMVNLMDRDGNGKLGLVEFNILWNRIRNYLSIFRKFDLDKSGSMSAYEMRMAIESAGFKLNKKLYELIITRYSEPDLAVDFDNFVCCLVRLETMFRFFKTLDTDLDGVVTFDLFKWLQLTMFA
# Tests used:
# [1] = biological target: GST-JP2NT (junctophilin-2 residues 1-565) (Mus musculus, UniProt Q9ET78 SEQ:1-565); experiment: EMSA; settings: tags: GST
# [2] = biological target: T7, type 2 ryanodine receptor (mouse, UniProt E9Q401 1-4966, limits assumed); experiment: co-immunoprecipitation with anti-HA, Western blot
# T7 construct: Endogenous prey of the co-immunoprecipitation; also called RyR2
# T7 sequence (E9Q401 whole entry): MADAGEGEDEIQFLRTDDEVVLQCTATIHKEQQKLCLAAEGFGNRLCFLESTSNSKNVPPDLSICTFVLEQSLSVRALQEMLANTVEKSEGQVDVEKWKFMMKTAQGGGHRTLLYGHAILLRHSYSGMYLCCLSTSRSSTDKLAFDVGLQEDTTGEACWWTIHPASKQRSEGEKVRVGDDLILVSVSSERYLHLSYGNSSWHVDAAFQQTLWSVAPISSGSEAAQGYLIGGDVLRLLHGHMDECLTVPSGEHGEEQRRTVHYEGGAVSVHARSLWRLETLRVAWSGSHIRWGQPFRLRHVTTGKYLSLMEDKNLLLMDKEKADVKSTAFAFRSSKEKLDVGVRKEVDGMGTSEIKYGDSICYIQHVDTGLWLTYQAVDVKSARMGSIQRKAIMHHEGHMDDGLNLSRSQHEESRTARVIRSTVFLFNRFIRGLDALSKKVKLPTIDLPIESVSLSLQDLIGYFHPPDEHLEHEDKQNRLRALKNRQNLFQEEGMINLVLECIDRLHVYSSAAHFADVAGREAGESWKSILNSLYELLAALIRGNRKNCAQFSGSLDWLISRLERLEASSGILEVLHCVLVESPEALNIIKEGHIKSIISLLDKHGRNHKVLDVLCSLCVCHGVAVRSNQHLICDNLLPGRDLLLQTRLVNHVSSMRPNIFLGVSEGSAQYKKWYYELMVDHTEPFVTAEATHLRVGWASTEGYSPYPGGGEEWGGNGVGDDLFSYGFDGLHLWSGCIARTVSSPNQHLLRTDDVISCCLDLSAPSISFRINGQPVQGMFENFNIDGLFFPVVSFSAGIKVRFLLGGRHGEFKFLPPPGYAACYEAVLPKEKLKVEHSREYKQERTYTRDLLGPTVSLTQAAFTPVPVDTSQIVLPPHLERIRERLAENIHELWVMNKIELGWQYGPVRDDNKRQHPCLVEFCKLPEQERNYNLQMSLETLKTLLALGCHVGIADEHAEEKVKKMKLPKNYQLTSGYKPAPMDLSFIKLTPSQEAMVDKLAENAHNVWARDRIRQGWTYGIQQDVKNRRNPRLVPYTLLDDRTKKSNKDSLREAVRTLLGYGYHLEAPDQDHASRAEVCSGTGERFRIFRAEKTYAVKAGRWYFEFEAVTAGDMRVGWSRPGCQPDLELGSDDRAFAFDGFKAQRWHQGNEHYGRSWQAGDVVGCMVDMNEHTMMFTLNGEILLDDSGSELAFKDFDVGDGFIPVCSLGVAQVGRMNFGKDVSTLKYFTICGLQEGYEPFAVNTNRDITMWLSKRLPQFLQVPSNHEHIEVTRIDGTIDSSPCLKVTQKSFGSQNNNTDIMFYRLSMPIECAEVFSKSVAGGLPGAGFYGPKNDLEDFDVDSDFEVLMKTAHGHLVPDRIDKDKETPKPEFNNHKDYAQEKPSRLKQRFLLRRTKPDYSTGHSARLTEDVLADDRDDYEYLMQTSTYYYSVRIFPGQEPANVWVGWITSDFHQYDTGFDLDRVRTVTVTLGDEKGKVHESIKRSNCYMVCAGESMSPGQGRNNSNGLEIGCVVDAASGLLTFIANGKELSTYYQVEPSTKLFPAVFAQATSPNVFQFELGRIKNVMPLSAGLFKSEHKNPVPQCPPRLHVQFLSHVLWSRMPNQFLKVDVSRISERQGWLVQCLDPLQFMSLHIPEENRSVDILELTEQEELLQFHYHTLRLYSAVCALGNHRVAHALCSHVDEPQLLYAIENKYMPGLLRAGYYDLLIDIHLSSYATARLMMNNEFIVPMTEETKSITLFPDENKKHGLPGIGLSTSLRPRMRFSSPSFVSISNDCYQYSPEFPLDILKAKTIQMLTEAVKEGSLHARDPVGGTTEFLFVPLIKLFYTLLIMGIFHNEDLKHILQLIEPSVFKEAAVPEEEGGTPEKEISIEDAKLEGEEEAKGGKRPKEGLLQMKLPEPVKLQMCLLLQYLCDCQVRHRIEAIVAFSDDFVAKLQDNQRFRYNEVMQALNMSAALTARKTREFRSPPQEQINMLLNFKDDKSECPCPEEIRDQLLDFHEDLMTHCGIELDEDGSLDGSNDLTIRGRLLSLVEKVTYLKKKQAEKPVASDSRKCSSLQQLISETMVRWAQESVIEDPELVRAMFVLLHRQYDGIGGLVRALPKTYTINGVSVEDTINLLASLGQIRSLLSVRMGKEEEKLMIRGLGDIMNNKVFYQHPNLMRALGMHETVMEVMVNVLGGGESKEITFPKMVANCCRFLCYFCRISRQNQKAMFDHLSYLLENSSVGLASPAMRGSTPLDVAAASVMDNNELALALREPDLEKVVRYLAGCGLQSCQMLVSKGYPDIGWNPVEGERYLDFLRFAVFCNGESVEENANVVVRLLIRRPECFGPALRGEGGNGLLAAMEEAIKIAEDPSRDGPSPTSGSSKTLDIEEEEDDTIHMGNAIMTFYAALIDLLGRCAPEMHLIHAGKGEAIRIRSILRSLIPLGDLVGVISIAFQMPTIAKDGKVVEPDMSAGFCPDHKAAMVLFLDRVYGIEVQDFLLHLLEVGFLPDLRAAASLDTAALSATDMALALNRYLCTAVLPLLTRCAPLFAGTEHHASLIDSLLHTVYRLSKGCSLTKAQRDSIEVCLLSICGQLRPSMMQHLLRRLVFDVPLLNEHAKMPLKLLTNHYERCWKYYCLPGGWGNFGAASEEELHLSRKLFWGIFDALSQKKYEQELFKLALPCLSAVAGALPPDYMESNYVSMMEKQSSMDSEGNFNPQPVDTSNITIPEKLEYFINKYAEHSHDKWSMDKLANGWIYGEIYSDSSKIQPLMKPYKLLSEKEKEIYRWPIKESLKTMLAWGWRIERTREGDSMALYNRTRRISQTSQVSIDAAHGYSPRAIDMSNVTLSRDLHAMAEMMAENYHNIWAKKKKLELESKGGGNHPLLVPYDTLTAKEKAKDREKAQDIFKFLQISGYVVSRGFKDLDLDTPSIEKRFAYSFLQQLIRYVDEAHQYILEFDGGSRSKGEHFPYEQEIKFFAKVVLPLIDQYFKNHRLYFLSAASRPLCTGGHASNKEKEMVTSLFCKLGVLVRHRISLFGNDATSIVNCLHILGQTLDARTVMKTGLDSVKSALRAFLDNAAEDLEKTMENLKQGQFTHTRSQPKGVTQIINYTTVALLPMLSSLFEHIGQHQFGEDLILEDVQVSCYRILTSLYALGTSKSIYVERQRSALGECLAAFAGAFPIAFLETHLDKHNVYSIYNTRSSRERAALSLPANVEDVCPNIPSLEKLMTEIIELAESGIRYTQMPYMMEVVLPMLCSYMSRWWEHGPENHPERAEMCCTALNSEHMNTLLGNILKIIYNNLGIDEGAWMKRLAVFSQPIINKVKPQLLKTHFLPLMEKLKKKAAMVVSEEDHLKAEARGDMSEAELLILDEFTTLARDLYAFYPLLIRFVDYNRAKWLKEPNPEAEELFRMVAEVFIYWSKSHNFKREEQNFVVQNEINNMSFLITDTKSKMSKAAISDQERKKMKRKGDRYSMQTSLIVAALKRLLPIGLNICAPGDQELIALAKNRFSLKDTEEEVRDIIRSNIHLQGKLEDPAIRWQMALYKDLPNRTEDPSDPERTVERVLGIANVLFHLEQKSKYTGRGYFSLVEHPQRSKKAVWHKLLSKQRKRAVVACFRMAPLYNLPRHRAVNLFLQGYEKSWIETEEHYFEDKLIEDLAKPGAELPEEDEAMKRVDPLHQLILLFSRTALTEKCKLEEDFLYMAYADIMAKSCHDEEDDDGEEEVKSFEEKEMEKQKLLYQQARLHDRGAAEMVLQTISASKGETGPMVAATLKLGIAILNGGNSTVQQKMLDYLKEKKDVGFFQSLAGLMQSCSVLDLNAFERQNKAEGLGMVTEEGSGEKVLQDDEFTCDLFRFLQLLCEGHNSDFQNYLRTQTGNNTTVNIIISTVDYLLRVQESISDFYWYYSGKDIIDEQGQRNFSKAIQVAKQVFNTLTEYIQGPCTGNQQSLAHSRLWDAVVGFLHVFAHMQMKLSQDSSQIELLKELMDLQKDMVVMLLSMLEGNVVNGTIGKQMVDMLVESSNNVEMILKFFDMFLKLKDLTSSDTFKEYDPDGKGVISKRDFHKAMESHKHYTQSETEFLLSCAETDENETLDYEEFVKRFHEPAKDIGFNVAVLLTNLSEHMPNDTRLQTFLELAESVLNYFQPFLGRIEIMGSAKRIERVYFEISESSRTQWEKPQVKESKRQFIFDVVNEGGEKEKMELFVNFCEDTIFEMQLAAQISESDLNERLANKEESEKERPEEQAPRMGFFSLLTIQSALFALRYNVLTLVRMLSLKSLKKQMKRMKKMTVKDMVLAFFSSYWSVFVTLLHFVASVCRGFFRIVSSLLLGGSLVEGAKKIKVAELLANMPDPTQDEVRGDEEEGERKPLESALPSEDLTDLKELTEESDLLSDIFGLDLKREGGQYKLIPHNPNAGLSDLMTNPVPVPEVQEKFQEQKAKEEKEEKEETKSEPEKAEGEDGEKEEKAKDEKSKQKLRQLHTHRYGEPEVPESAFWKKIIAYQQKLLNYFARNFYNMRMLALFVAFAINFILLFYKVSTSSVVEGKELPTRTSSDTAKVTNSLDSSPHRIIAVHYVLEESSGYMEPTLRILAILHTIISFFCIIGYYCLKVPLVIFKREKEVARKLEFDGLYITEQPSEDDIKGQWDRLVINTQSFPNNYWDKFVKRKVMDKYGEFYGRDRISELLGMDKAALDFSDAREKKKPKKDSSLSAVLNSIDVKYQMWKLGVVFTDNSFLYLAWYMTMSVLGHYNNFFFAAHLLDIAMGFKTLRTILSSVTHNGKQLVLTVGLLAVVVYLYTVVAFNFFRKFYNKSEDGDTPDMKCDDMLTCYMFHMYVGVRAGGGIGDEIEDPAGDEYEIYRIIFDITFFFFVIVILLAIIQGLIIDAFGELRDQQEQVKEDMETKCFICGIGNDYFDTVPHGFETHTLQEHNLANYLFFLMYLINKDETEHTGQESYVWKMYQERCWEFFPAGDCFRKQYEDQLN
# [3] = biological target: T8, Cav1.2 (voltage-gated L-type Ca2+ channel) (mouse, UniProt Q01815 1-2139); experiment: co-immunoprecipitation with anti-HA, Western blot
# T8 construct: Endogenous prey of the co-immunoprecipitation
# [4] = biological target: T1, JP2(1-565) truncation with N-terminal …
# [5] = biological target: T2, full-length JP2 Δ(153-158) with …
# [6] = biological target: T3, full-length JP2 Δ(198-205) with …
# [7] = biological target: T4, full-length JP2 Δ(563-568) with …
# [8] = biological target: T5, junctophilin-2 (JP2), human, in human …
# [9] = biological target: T6, junctophilin-2 (JP2), murine, full …
binder,measurement,setting,value
B1,binding result,[1],binds
B2,binding result,[2],no binding
same,binding result,[3],no binding
B3,"in vitro calpain cleavage, Western blot with anti-FLAG",[4],"this fragment can be further processed by calpain to generate N-I, N-II, and N-III fragments"
same,"in vitro calpain cleavage assay, Western blot",[5],completely abolished the generation of N-I in the in vitro calpain cleavage assay
same,"in vitro calpain cleavage assay, Western blot",[6],resulted in complete loss of the JP2 cleavage product N-II but had no effect on the generation of N-I
same,"in vitro calpain cleavage assay, Western blot",[7],"led to complete loss of N-IV (FIG. 4D, d) and a severe reduction in C-I"
same,"in vitro calpain cleavage of human heart lysates, Western blot of JP2",[8],time-dependent and Ca^2+/calpain-dependent JP2 down-regulation
same,"in vitro calpain cleavage of WT mouse heart lysates, Western blot of full-length JP2",[9],significant reduction in full-length JP2 upon addition of calpain I
